Experimental data: US20150093383A1 (ONO PHARMACEUTICAL, published 2015)
Square brackets hold non-standard residues; d marks the D form. Ends that are not written are not given here. * marks the point of attachment. Biotin = O=C1N[C@H]2[C@H](CS[C@H]2CCCCC(=O)*)N1; pY = N[C@@H](Cc1ccc(OP(=O)(O)O)cc1)C(=O)O

T1: SHP-2 (mouse (endogenous in mouse B cell …, UniProt P35235 2-593))
T1 construct: Detected by Western blotting with a Santacruz primary antibody; also called phosphatase
T1 sequence (looked up): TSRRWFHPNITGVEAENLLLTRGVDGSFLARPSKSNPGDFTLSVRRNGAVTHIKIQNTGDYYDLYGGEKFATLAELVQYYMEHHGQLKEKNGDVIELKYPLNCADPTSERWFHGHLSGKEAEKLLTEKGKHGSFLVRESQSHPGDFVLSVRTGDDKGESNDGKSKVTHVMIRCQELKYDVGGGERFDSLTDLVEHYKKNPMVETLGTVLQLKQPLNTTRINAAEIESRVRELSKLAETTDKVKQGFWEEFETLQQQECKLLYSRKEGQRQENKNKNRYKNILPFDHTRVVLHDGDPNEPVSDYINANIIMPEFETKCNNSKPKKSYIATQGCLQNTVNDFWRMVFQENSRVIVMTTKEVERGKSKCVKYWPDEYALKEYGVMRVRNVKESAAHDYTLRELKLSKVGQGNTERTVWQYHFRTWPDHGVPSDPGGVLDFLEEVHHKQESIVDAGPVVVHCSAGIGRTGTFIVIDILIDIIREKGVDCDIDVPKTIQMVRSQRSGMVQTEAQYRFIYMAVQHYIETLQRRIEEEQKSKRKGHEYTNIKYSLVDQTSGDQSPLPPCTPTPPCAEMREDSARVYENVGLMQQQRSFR

T2: SHIP-1 (mouse (endogenous in mouse B cell …, UniProt Q9ES52 1-1191, limits assumed))
T2 construct: Detected by Western blotting with a Santacruz primary antibody; also called phosphatase
T2 sequence (looked up): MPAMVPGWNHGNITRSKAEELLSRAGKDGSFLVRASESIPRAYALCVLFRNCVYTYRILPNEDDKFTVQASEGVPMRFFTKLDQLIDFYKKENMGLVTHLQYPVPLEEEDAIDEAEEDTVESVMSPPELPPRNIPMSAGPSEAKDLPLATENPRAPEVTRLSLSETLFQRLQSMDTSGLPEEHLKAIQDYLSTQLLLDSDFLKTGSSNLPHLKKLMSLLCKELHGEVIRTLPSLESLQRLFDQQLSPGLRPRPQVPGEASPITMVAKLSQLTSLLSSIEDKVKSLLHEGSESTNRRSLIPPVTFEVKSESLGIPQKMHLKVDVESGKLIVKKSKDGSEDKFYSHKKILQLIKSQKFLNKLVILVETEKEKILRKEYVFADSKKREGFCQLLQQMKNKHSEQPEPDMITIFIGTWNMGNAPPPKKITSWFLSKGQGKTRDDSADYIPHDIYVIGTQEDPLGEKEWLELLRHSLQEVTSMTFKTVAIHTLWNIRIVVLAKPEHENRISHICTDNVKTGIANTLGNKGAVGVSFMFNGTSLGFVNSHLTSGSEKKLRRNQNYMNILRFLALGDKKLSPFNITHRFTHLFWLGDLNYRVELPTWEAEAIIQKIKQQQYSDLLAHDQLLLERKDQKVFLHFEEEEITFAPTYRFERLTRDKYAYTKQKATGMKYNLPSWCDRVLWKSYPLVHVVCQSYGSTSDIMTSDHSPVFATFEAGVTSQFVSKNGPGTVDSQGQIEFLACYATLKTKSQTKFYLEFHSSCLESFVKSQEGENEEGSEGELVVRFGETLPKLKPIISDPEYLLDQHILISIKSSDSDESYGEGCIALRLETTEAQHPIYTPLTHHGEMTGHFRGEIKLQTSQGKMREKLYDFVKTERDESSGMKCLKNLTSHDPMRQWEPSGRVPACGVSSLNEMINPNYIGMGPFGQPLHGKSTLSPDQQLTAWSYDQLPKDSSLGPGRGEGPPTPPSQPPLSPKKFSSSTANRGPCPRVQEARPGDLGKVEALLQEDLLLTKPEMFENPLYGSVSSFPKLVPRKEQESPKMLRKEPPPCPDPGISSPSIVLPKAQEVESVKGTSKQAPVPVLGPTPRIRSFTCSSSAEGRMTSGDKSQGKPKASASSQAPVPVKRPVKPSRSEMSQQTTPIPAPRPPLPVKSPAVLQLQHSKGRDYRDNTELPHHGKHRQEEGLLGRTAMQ


Tests used:
[1] = target: T3, SHP-1 (mouse (endogenous in mouse B cell …, UniProt P29351 1-595)); assay: co-immunoprecipitation with 2.4G2 from stimulated A20IIA1.6 cells, Western blotting
T3 construct: Detected by Western blotting with a Santacruz primary antibody; also called phosphatase
Description: (§1) Examination was carried out on whether or not intracellular tyrosine residue is phosphorylated and a phosphatase is recruited when BIR1 is activated. With 30 μg/mL of F(ab′)₂ of rabbit anti-mouse IgG (H+L) antibody or 45 μg/mL of intact antibody thereof (manufactured by Zymed), 3×10⁷ cells of the FcR chimeric protein-stably expressing cell suspended in Ca²⁺-containing HEPES/Hanks' buffer were stimulated at 37° C. for 3 minutes. Thereafter, the cells were lysed with a lysis buffer (1% NP-40, 50 mmol/L Tris-HCl, pH 8.0, 150 mmol/L NaCl, 50 mmol/L NaF, 10% glycerol, 1 mmol/L Na₃VO₄, […], proteinnase inhibitor cocktail tablet (manufactured by Roche Diagnostics)). The cell lysate was allowed to react with Protein A/G PLUS-Agarose (manufactured by Santacruz) to which a rat anti-mouse CD16/CD32 antibody (2.4G2) (manufactured by BD Pharmingen) is bound, at 4° C. for 5 hours or more. The FcR chimeric protein and binding molecules thereof are immuno-precipitated and then Western blotting was carried out in the usual way. The membrane was allowed to react with phosphotyrosine (4G10) (manufactured by Upstate) and primary antibodies for SHP-1, SHP-2 and SHIP-1 (manufactured by Santacruz), followed by the reaction with a horse radish peroxidase (HRP)-labeled secondary antibody (manufactured by Santacruz) to detect the bands by an ECL detection system (manufactured by Amersham Biosciences).

[2] = target: T1, SHP-2; assay: as above
Description: as §1

[3] = target: T2, SHIP-1; assay: as above
Description: as §1

[4] = target: T3, SHP-1; assay: pull-down of A20IIA1.6 lysate with biotinylated phosphopeptide, Western blotting
Excerpt: (§2) The ITIM domain which is a sequence important for BIR1 in transmitting inhibitory signal and the binding phosphatase were identified. Peptides (Y3: Biotin-HSQELQ³¹³YATPVF (SEQ ID NO:23), Y5: Biotin-DSYKSG³³⁶YVYSEL (SEQ ID NO:24), Y6: Biotin-YKSGYV³³⁸YSELNF (SEQ ID NO:25)) containing intracellular tyrosine of BIR1 (SEQ ID NO:1) and their corresponding phosphorylated peptides (pY3: Biotin-HSQELQ³¹³(pY)ATPVF (SEQ ID NO:26), pY5: Biotin-DSYKSG³³⁶(pY)VYSEL (SEQ ID NO:27), pY6: Biotin-YKSGYV³³⁸(pY)SELNF (SEQ ID NO:28)) were synthesized (consigned to Sigma Genosys). A peptide containing the ITIM sequence of mouse PIR-B and its phosphorylated peptide (Y3: Biotin-ESQDVT⁷⁹⁴YAQLCS (SEQ ID NO:29) and pY3: Biotin-ESQDVT⁷⁹⁴(pY)AQLCS (SEQ ID NO:30)) were synthesized as positive controls. These peptides were connected to Protein A/G PLUS-Agarose (manufactured by Santacruz) via an anti-biotin antibody (manufactured by Sigma) and then allowed to react with a lysate of A20IIA1.6 cell at 4° C. for 2 hours. After immunoprecipitation, western blotting was carried out in the usual way. The membrane was allowed to react with primary antibodies for SHP-1, SHP-2 and SHIP-1 (manufactured by Santacruz), and then allowed to react with an (HRP)-labeled secondary antibody (manufactured by Santacruz), and the bands were detected using an ECL plus Western Blotting Detection System (manufactured by Amersham Biosciences).

[5] = target: T1, SHP-2; assay: as above
Excerpt: as §2

[6] = target: T2, SHIP-1; assay: as above
Excerpt: as §2

Row | binding result [1] | binding result [2] | binding result [3] | binding result [4] | binding result [5] | binding result [6] | Binder
1 | no binding | no binding | no binding |  |  |  | FcR-hBIR1 (YWF) (receptor, Stably expressed in the mouse B cell strain A20IIA1.6; Immunoprecipitated from the cell lysate with 2.4G2; also called mutant in which intracellular tyrosine residue of BIR1 was replaced by phenylalanine residue) THDLPKAVVKLEPPWIQVLKEDTVTLTCEGTHNPGNSSTQWFHNGRSIRSQVQASYTFKATVNDSGEYRCQMEQTRLSDPVDLGVISDWLLLQTPQLVFLEGETITLRCHSWRNKLLNRISFFHNEKSVRYHHYSSNFSIPKANHSHSGDYYCKGSLGRTLHQSKPVTITVQGPKSSRSLPVLTIVAAVTGIAVAAIVIILVSLVYLKKKQVPKFKTRKAMRNNVPRDRGDTAMEVGIFANILEKQAKEESVPEVGSRPCVSTAQDEAKHSQELQFATPVFQEVAPREQEACDSFKSGFVFSELNF
2 |  |  |  | no binding | no binding | no binding | Biotin-DSYKSG[pY]VYSEL (Synthesised by Sigma Genosys) [pY5: Biotin-DSYKSG^336(pY)VYSEL]
